Target: T1, Biotinylated UvrD (E. coli, UniProt P03018 1-720, biotin)
T1 construct: UvrD helicase (DNA helicase II), E. coli; also called E. coli UvrD
T1 sequence (looked up): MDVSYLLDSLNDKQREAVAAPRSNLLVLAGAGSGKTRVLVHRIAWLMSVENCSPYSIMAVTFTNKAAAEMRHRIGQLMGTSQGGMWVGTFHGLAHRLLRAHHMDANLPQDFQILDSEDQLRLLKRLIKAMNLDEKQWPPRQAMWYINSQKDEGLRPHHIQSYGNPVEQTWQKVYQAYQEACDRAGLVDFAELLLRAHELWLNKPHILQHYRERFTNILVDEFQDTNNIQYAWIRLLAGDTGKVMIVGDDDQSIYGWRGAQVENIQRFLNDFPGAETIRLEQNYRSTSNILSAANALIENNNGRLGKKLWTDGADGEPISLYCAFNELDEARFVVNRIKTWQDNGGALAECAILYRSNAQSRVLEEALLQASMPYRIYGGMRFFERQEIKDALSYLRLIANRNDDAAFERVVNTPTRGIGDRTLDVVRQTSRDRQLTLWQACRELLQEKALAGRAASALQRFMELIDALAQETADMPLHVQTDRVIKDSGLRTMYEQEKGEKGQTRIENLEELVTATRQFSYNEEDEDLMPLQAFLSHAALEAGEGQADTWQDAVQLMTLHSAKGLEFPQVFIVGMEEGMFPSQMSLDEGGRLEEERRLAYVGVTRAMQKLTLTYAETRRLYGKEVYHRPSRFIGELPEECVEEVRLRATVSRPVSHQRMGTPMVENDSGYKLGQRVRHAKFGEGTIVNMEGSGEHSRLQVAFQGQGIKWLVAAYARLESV
Test: SPR; BIAcore T200, 25°C; biotinylated UvrD or Rep immobilised on streptavidin-coated SA chips; Tau or UvrB passed over, ca. 200-4000 nM, 20 µl/min; 10 mM HEPES pH 7.4, 3 mM EDTA, 150 mM NaCl, 10 mM MgCl2, 0.05% Tween 20; single sites binding model
Settings: both partners purified

Kd: 231 nM
B1: UvrB (natural protein, UniProt P0A8F8 1-673, looked up)
chain: MSKPFKLNSAFKPSGDQPEAIRRLEEGLEDGLAHQTLLGVTGSGKTFTIANVIADLQRPTMVLAPNKTLAAQLYGEMKEFFPENAVEYFVSYYDYYQPEAYVPSSDTFIEKDASVNEHIEQMRLSATKAMLERRDVVVVASVSAIYGLGDPDLYLKMMLHLTVGMIIDQRAILRRLAELQYARNDQAFQRGTFRVRGEVIDIFPAESDDIALRVELFDEEVERLSLFDPLTGQIVSTIPRFTIYPKTHYVTPRERIVQAMEEIKEELAARRKVLLENNKLLEEQRLTQRTQFDLEMMNELGYCSGIENYSRFLSGRGPGEPPPTLFDYLPADGLLVVDESHVTIPQIGGMYRGDRARKETLVEYGFRLPSALDNRPLKFEEFEALAPQTIYVSATPGNYELEKSGGDVVDQVVRPTGLLDPIIEVRPVATQVDDLLSEIRQRAAINERVLVTTLTKRMAEDLTEYLEEHGERVRYLHSDIDTVERMEIIRDLRLGEFDVLVGINLLREGLDMPEVSLVAILDADKEGFLRSERSLIQTIGRAARNVNGKAILYGDKITPSMAKAIGETERRREKQQKYNEEHGITPQGLNKKVVDILALGQNIAKTKAKGRGKSRPIVEPDNVPMDMSPKALQQKIHELEGLMMQHAQNLEFEEAAQIRDQLHQLRELFIAAS

From article doi:10.1101/2021.02.22.432310, “Tetrameric UvrD helicase is located at the E. coli replisome due to frequent replication blocks” (bioRxiv, 2021)
